Source: US20090062190

Tested on: LITAF + STAT6(B) complex (Homo sapiens)
Experiment: cell_activity
Conditions: TNF promoter-luciferase in U2OS cells; inhibited by LITAF shRNA

Chain of LITAF + STAT6(B) complex (Homo sapiens) (chain, as listed by the source, chain 1 of 2): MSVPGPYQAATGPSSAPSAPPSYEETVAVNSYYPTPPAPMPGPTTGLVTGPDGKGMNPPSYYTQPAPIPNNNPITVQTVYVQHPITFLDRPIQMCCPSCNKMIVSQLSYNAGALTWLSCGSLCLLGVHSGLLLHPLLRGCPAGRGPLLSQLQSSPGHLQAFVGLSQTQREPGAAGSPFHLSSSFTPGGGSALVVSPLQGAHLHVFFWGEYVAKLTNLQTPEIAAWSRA
Chain of LITAF + STAT6(B) complex (Homo sapiens) (chain, as listed by the source, chain 2 of 2): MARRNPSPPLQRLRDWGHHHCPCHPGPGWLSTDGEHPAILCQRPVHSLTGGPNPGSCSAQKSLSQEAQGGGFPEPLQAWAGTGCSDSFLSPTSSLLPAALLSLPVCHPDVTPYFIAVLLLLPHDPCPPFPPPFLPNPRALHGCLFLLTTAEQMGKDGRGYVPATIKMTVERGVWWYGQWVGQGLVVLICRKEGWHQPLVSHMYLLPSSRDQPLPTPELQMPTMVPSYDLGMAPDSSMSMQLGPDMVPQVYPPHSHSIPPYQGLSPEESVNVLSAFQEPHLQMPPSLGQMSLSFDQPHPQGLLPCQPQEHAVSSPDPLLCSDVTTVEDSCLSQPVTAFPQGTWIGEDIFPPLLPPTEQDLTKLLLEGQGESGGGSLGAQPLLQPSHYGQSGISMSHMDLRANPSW

Substance: hTNF-alpha promoter DNA probe
- activity (fold vs LITAF alone): 1.5
